This is an account of results in patent US20190248848A1.

For test [1], the target named is biotinylated histone H3 peptide trimethylated at lysine 27, H3K27me3 (21-44) (UniProt P68431). The test is described as follows: histone peptide microspot array, 10 and 20 µM spotted H3K27me3.
Test [2] has as its target histone H3 trimethylated at lysine 27 (H3K27me3) in cellular chromatin at the Tk-luciferase reporter of HEK293 Gal4-EED/luc cells. The test is described as follows: cell-based or functional assay.

Take “Pc2TF, bivalent Polycomb-based transcription factor with the flexible linker (GGGGS)4 (pET28 construct; TXTL-expressed or purified from E. coli) (from UniProt Q9HC52 1-62; Q9HC52 1-62) (designed binder)”: the fold smaller Kd^app than PcTF in test [1] came to 2 fold.

“Pc2TF with the flexible linker (GGGGS)4 (MV10 mammalian expression construct, expressed in HEK293 Gal4-EED/luc cells) (from UniProt Q9HC52 1-62; Q9HC52 1-62) (designed binder)” came in with a luciferase activity, Tk-luciferase reporter, HEK293 Gal4-EED/luc cells, 96 hours dox (fold against PcTF) in test [2] of 2.
